Tested on: K4 kissing-loop RNA reporter
Assay: apparent KD of K4 kissing-loop reporter; higher = weaker reporter binding
Conditions: Eterna round: R107
Description: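 RNA-MaP round R107: designed RNA switches with theophylline, tryptophan, arginine or FMN aptamers are transcribed on-chip within common flanks. They are titrated with a labelled K4 kissing-loop RNA reporter in RNA-MaP buffer (100 mM Tris pH 7.5, 80 mM KCl, 4 mM MgCl2), without ligand or with the indicated ligand. Median apparent KD per design.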

[1] = input ligand: theophylline 20 uM
[2] = input ligand: tryptophan 2.4 mM
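Note: bound reporter read as fluorescence of individual clusters on recovered sequencing chips by microscopy, with normalized cluster intensities fitted with a binding model.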

Row | Sequence | apparent KD of K4 kissing-loop reporter (input ligand: FMN 200 uM) | apparent KD of K4 kissing-loop reporter (input ligand: arginine 13.2 mM) | apparent KD of K4 kissing-loop reporter (input ligand: none) | apparent KD of K4 kissing-loop reporter [1] | apparent KD of K4 kissing-loop reporter [2]
1 | AAUAUCUAGUAUAUAUUUUAUAAAACAGAUACCAGUGAUUAUAUACACCCUUGGCAGCUGGACGAGUGAUGUUCGUAUAUAUUAA [JR_SSTheophyA_Sub008] | 118 nM | 188 nM | 147 nM | 244 nM | 89 nM
2 | GCAGUGAUGUUGCUGAUGUGCAGUGGUAGUCGAGGACCGGUACGGCCGCCACUCGGUGAGAAUUUGCUAAUACAUCGAUAAGUGA [XVII] | 1210 nM | 614 nM | 1280 nM | 858 nM | 904 nM
3 | CGUACGGUUUCUUUCUUUCCGUACGCGUGCCGAGGACCGGUACGGCCGCCACUCGCUACAGCCUAGUGAUGUUAGGCAAUUCUUU | 107 nM | 111 nM | 112 nM | 124 nM | 89.9 nM
4 | UCUGCAAAGUCGGCCGCCACUCCGGGCCCUAUAAAUGGGCGCAGUGAUGUUGCGGCUAGGCCUCUGAGGACCGGGACUUUAUAGA [Anarisgema] | 37.4 nM | 45.8 nM | 184 nM | 88.3 nM | 175 nM
5 | AGGAUCCGUCGACAAAAGUCGACAUAAACCAAGGAUAUGACGAAAGUCAGAAGGUGGUCAUAAGGCCAGUGAUGUUGGUGGAUCC [FmnA 12 #SwitchBubble #K4Late] | 927 nM | 431 nM | 576 nM | 796 nM | 349 nM
6 | GCAUCCAUGGCAGGAUAUAGGUUCGUGGAGUGAUGUUCCAUAACCCGAGUGAUGUUCGUUAUCCACCUAGAAGGGCCAUGGAUGC [whbob_Ex_FMNB__2th211] | 212 nM | 204 nM | 218 nM | 215 nM | 184 nM
7 | GCCGUAGAUUGAAGGAGCGUUCUUCAGCAAACUUGCAGUGAUGUUGCAUUAAACAUGUAAGAACAGGUAGGUCGCAAUCUACGGC | 145 nM | 138 nM | 155 nM | 129 nM | 121 nM
8 | CCUAUCUCAUACGAUACCAGUCUACGAUAUUUUAUCGUUGCCAACACCGAGUGAUGUUCGGACCCUUGGCAGCGUAUGGGAUAGG [#03 K4 Theophylline B Exclusion] | 159 nM | 129 nM | 143 nM | 138 nM | 136 nM
9 | CCGAUGGGUACAGGAUAUGCCAGUGAUGUUGGUUUAGAUGGACCCAUAAGGAGACACCAGACGGAGGCAGAAGGGUAGCAAGGGA [Isonanti] | 127 nM | 110 nM | 101 nM | 118 nM | 120 nM
10 | GUCAUCAGAUCGCAAGAUCUGAUAGCCGAUACCAGCGCGAAGGUGCGCCCUUGGCAGCGGCACCGAGUGAUGUUCGGUCAGACGA [#2 Same State - Theophylline A Attempt #5 (HarryS)] | 526 nM | 392 nM | 514 nM | 330 nM | 427 nM
11 | AGGCCCGGCCGAAAGGCCGGGCCAAGAGAUACCAGCAGCGAAAGCUGCCCUUGGCAGCUCACUUAGUGAUGUUAAGAGAUAAAUG [SS Theo A Tesla 1.2] | 365 nM | 353 nM | 294 nM | 424 nM | 279 nM
12 | UUAGGAGUGGGAGGAUAUCCUAAUGUGGGUGAUGUUAGUGAUGUUGAAAGUGUAGUGAUGUUGUGCGGAGAAGGUCCAGUGUUGA [BDazzled - #11 - Exc. FMN B] | 212 nM | 133 nM | 210 nM | 192 nM | 157 nM
13 | AUGGUGGAUCAGUGAUGUUGGUGGAGUACGUAGGAUAUGAGUGAUGUUAGAAGGAUGGGAGUGAUGUUCCAGGUGGUUGUGUUGU [KL-SSFMN-A1] | 557 nM | 364 nM | 652 nM | 507 nM | 492 nM
14 | GGCAUGCAUGGAAACAUGCAUGCCAUGCCUCGAGGACCGGUACGGCCGCCACUCGUUAAAAGAAAUGCCAGUGAUGUUGGCCGAA | 443 nM | 430 nM | 528 nM | 500 nM | 175 nM
15 | AUUAACCUUUUAGCUAUAUUUUUAUGUGAUACCAGACAUGGCAUAGUCCCUUGGCAGCACAUUAUAUUUACGAGUGAUGUUCGAA [JR_SSTheophyA_Sub026] | 243 nM | 250 nM | 261 nM | 271 nM | 194 nM
16 | GUGAAGGAGAUGCAGUGAUGUUGCAGAGACUAGGAUAUCAGGAAACUGAGAAGGAGUCAAUUCCUUCAUUUAGACUGCAACAUAA [KL-SSFMN-A12] | 204 nM | 139 nM | 138 nM | 296 nM | 191 nM
17 | UGUCAUGGAAACAUGAACGUUGAUGUUCGACGAGGACCGGUACGGCCGCCACUCGAGUAAUAGUCAGUGAUGUUGACUUGUCUAA [KL-SSTryp-A form1 sub3] | 74.2 nM | 107 nM | 91.8 nM | 131 nM | 76.5 nM
18 | GGGCCUCUGGCUGAUACCAGUGAUGCAGGGUCCGAGACAGGGAGUGAUGUUCCCUGCAGCCACCCUUGGCAGCAGUUUAAGUUUG [Exclusion Theophylline B GF 19] | 136 nM | 124 nM | 122 nM | 124 nM | 129 nM
19 | CGGAUGUAGUGAUGUUAUAUUAGAUGUAGACGAGGACCGGUACGGCCGCCACUCGAAACGGCUACUAGCGCGUUGCGAGGUGUGC [ExTryptoA.CJ] | 737 nM | 525 nM | 686 nM | 784 nM | 480 nM
20 | GCCGUACGCAUGGAUACCAGCAACCCUGCCAUCCCAGUGAUGUUGGGAGGAACAUUCUCAUGCCCUUGGCAGCCAUGCGUACGGC | 534 nM | 358 nM | 473 nM | 384 nM | 459 nM
21 | AGGCACGAGCAAGGAUAUCGAGUGGAGUGAUGUUCUGCCGACCCAGGACCGAAAGGUCCUGGGUCGCGAGAAGGUGCUCGUGCCU [#2 Same State - FMN A Attempt #8 (HarryS)] | 215 nM | 785 nM | 949 nM | 568 nM | 711 nM
22 | GCAUGCAUGGCAGGAUAUAAUCUGGAGUGAUGUUCCUUUAACCUUUCGAACGGCGAGCCAGGUUGAUUAGAAGGGCCAUGCAUGC | 435 nM | 476 nM | 622 nM | 628 nM | 530 nM

Row | Sequence | apparent KD of K4 kissing-loop reporter (input ligand: FMN 200 uM) | apparent KD of K4 kissing-loop reporter (input ligand: arginine 13.2 mM) | apparent KD of K4 kissing-loop reporter (input ligand: none) | apparent KD of K4 kissing-loop reporter [1] | apparent KD of K4 kissing-loop reporter [2]
23 | AAUUUAUAUUUGUUCUUCAAAUGUUCAGAAGGAGCGUGAAUUAUCACAGGUAGGUCGCUGGGCUAGUGAUGUUGGCUAUAUACUA [whbob_Ex_Arginine_A_2t126] | 168 nM | 195 nM | 195 nM | 211 nM | 137 nM
24 | UAGUCCUAGUGAUGGUUAUCACGUGGUGGGCGAGGACCGGUACGGCCGCCACUCGACUUUGCAGUGAUGUUGCAAUCCGGACAAU [Exclusion - Tryptophan A (Freestyle 17)] | 194 nM | 215 nM | 240 nM | 224 nM | 258 nM
25 | UGUACCGAGUCAGGAUAUCGCGUCGAAAGACGAAACGAGUGAUGUUCGAAUCGAUCGAAAGAUCGUCGAGAAGGGACUUGGUACU [FmnBS 22 #SwitchBubble #StaticStem #DoubleMagnetSystem] | 219 nM | 676 nM | 642 nM | 569 nM | 589 nM
26 | AGAGUUAUGCGAGGAUAUGCGGUUAGUACUCAAAGAGUACUAACAGCAGAGUGAUGUUCUGUGAAAGCAGAAGGUGCAUAACUCA [Omei KL FMN B SS B v10] | 153 nM | 1060 nM | 1040 nM | 1120 nM | 1320 nM
27 | UGACUGGAUGGAAGGAGCGCUAAACUCCUAGUGAUGUUAGGGACACGAGACAAAGUCUCGAGGCAGGUAGGUCGCCAUCUAGUCU [FiskerMod 7 - Jieux - Same State - Arginine B] | 225 nM | 198 nM | 197 nM | 250 nM | 212 nM
28 | GUCUCGAGUGAUGUUCGGGUCGAUUGGGAAGGAGCGCCCGGAAGGGCAGGUAGGUCGCCCGGACCGCGCGGGCAACCGCGCGGCC [#2 Same State - Arginine A Attempt #11 (HarryS)] | 186 nM | 108 nM | 147 nM | 141 nM | 163 nM
29 | GGGAGUGAUGUUCCCACGUUGUCGGUCCUCCGAGGACCGGUACGGCCGCCACUCGCGACCCAGUGAUGUUGGGACUCACCGUACC [Exclusion Tryptophan A Gf 12] | 509 nM | 377 nM | 558 nM | 557 nM | 218 nM
30 | AAUACAGUACAACCGAGUGGAACACAAAUACGAGGACCGGUACGGCCGCCACUCGUGCAGAAUUUCAGUGAUGUUGAAAUACUGC [Exclusion Tryptophan A GF 6] | 165 nM | 125 nM | 122 nM | 162 nM | 149 nM
31 | UUUAACGAGUGAUGUUCGAAAAGUAAUGGUUAGGAUAUCGUUUUUUCGAGAAGGAACCUCGAAGUGAUACGAAAGUAUCGCUUCG [FMN A 2] | 173 nM | 428 nM | 264 nM | 466 nM | 240 nM
32 | AACUUAAUUUAUAAGCAGUGAUGUUGCUUACGAGGACCGGUACGGCCGCCACUCGAUCGCAUUUAUGUCUUCAAUUAAUUCAUUA [JR_ExcTryptoA_Sub016] | 178 nM | 196 nM | 197 nM | 237 nM | 195 nM
33 | GCGGGCCAGACGGCCGCCACUCCGGGCAGUGAUGUUGCGAAAAUUCUACUAGAGUGAUGUUCUACGAGGACCGGGUCGGAACGCG [Exclusion Tryptophan B Gf 12] | 370 nM | 476 nM | 538 nM | 495 nM | 257 nM
34 | AGACUACCACACUGUCAAUAGACAGUGUACUAGGAUAUGCUGAUAAGCAGAAGGAGUGAUGUUCCUGGGUAGUCAAUAAAAUAAU [FmnAX 13 U28+G67] | 507 nM | 388 nM | 486 nM | 514 nM | 404 nM
35 | GGCAGUGAUGUUGCCUAAGCAACGCAUGCGGAGGAUAUUCGUUCGGGAAGAAGGCCGCAGCGUUCUCUCGAGUGAUGUUCGAGUA [Same State FMN A GF 21] | 161 nM | 176 nM | 176 nM | 171 nM | 166 nM
36 | GCAGUCAAUCGACCACGAAAGUGGAUGGAUACCAGAGUCGAAAGACUCCCUUGGCAGCCAGUGAUGUUGGAAGACUGCAAUAAAA [#SwitchBubble 16 #K4Late] | 1120 nM | 357 nM | 622 nM | 479 nM | 468 nM
37 | UGCGCUGUGUACUGAAAUGUUAUGCGGGAUACCAGAGUCUUUUUAUUCCCUUGGCAGCUUGAGUGAUGUUUGAUGCCGUUCUUGU [po,,mmullin] | 490 nM | 256 nM | 548 nM | 577 nM | 418 nM
38 | UAAUAAAUUCCAGCGAUAUCGCUCUUCGAAGGAGCGGGCGAAGGUCCAGGUAGGUCGCGGAGAGUGAUGUUCUUUGCGGCGCUGG [whbob_Ex_Arginine_A_2t135] | 216 nM | 225 nM | 239 nM | 226 nM | 273 nM
39 | CCGGGCGGCUGAAGGAGCGGGCGGGCCCGAGUGAUGUUCGGGUGGGCCGUGAGGUCCGGUGCCCAGGUAGGUCGCGGUUCCGCCC [#2 Same State - Arginine B Attempt #10 (HarryS)] | 200 nM | 169 nM | 262 nM | 215 nM | 164 nM
40 | CGAUACGGAAAUACGUGUCUCUAUUCAGAAGGAGCGUGGUAGUACACAGGUAGGUCGCUGAAAUUUAAACUAGUGAUGUUAGACU [JR_SSArginiA_Sub004] | 1330 nM | 742 nM | 1190 nM | 884 nM | 905 nM
41 | AGUGAUGUGGGAAGGAGCGCUACAAGACUUCAGUGAUGUUGAAGUGAUGAUUUAGUGUUGUAGCAGGUAGGUCGCCUAGAUGUUA [KL-XARG-B9] | 60.9 nM | 27 nM | 44.9 nM | 36.2 nM | 39.1 nM
42 | CAUAGACAAGUGAUGUUUGUCAUAACCGAAGGAGCGUCUUUAAAGACAGGUAGGUCGCGGAUUAGUUAAGUUAUGAUUCUUUAUG [#19 K4 Arginine A Same State] | 602 nM | 492 nM | 704 nM | 659 nM | 453 nM
43 | GUAGACGUACCUUCAGUGAUGUUGAAGGAUACCAGAUGUUACCACAUCCCUUGGCAGCCUUGGGAUAACAGUGAGUCGGAAUAUG [Uslediti] | 176 nM | 136 nM | 158 nM | 166 nM | 142 nM
